Test results as given in patent US20170022503A1 (NATIONAL UNIVERSITY OF SINGAPORE, published 2017).

B1: flag-tagged WARS2(L53F) mutant (human) (enzyme)
chain: LHKGSAAAPALQKDSKKRVFSGIQPTGILHLGNYFGAIESWVRLQDEYDSVLYSIVDLHSITVPQDPAVLRQSILDMTAVLLACGINPEKSILFQQSQVSEHTQLSWILSCMVRLPRLQHLHQWKAKTTKQKHDGTVGLLTYPVLQAADILLYKSTHVPVGEDQVQHMELVQDLAQGFNKKYGEFFPVPESILTSMKKVKSLRDPSAKMSKSDPDKLATVRITDSPEEIVQKFRKAVTDFTSEVTYDPAGRAGVSNIVAVHAAVTGLSVEEVVRRSAGMNTARYKLAVADAVIEKFAPIKREIEKLKLDKDHLEKVLQIGSAKAKELAYTVCQEVKKLVGFL
notes: also called mutant WARS2; not shown: C-terminal myc-DDK (flag) tag of the Origene construct
B2: glyceraldehyde-3-phosphate dehydrogenase (GAPDH) (enzyme)
chain: not shown
notes: GAIT complex component; endogenous protein of HUVEC cells

What was measured:
Experiment in all cases: co-IP of flag-tagged protein from HUVEC cells, blot
[1] = target: T1, glutamyl-prolyl tRNA synthetase (EPRS) (human, UniProt P07814 1-1512)
T1 construct: GAIT complex component; endogenous protein of HUVEC cells

[2] = target: Ribosomal Protein L 13a (RPL13a) (human, UniProt P40429 2-203)
[3] = target: B1

T1 sequence (P07814 whole entry): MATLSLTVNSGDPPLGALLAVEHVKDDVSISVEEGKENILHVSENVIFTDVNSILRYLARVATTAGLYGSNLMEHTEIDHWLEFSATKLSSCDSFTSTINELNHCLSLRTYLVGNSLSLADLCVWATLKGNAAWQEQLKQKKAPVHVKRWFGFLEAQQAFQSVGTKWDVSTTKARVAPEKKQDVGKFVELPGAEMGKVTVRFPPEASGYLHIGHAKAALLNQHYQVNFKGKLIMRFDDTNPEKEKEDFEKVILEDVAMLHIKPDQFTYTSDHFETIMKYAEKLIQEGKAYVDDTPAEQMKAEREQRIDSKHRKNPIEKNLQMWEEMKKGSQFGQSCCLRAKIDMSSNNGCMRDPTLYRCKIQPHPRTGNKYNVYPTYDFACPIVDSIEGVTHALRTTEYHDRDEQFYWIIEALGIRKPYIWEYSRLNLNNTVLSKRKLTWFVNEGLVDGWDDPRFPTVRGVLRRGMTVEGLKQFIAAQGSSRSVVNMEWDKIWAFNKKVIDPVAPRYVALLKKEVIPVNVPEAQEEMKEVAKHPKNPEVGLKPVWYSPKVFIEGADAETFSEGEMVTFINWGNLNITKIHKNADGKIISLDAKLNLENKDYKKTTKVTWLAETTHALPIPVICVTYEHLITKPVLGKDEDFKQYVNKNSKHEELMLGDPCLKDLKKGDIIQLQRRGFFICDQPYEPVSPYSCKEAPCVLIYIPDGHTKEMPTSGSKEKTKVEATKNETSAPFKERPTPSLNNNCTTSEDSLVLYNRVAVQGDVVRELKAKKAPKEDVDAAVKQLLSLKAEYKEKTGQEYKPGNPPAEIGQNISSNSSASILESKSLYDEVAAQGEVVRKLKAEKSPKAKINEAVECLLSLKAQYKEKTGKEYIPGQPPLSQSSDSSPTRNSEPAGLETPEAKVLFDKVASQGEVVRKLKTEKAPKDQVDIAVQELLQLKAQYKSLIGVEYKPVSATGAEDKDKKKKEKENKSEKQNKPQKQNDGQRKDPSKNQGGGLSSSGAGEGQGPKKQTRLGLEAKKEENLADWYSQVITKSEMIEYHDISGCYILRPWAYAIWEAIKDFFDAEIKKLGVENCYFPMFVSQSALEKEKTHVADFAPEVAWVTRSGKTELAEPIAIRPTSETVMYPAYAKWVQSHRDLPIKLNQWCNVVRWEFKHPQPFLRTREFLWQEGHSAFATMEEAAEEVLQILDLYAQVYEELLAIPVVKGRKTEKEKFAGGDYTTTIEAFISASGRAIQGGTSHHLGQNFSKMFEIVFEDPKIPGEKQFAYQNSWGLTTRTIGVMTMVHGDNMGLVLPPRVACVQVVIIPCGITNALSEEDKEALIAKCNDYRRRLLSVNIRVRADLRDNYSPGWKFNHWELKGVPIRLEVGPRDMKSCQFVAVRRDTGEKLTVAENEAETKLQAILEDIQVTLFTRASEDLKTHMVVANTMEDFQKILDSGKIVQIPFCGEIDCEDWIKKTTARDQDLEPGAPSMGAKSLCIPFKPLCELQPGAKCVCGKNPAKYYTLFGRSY

binding result [1]	binding result [2]	binding result [3]	Binder
no binding	no binding		B1
		no binding	B2
